T1: CD59 (immobilized for SPR), P13987
T1 chain: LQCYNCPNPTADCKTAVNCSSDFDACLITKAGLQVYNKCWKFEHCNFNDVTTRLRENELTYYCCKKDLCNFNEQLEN


Target: T1, CD59 (immobilized for SPR), P13987
Assay: SPR
Settings: chain shown with the change; n = 1
Binder YSWTAGNRSSVRGC [CP-06 W5A] has a ratio to parent of 19. Binder YSWTWANRSSVRGC [CP-06 G6A] has a ratio to parent of 21. For YSWTWGARSSVRGC [CP-06 N7A], the ratio to parent was 19.

Same assay, conditions: chain shown with the change; n = 1; parent: est. 8.0; read off a plot
Work on YSWTAGNRSSVRGC [CP-06 W5A] yielded an other: pKD (-Log10(KD)) of 6.7. For YSWTWGNRSSVAGC [CP-06 R12A], the other: pKD (-Log10(KD)) was 7.1. For YSWTWANRSSVRGC [CP-06 G6A], the other: pKD (-Log10(KD)) was 6.7. YSWTWGNASSVRGC [CP-06 R8A] was tested, and the other: pKD (-Log10(KD)) was 7.8. YSWTWGNRSSARGC [CP-06 V11A] gave an other: pKD (-Log10(KD)) of 7.6. For YAWTWGNRSSVRGC [CP-06 S2A], the other: pKD (-Log10(KD)) was 7.9. YSWTWGNRSAVRGC [CP-06 S10A] showed an other: pKD (-Log10(KD)) of 8. For YSWTWGARSSVRGC [CP-06 N7A], the other: pKD (-Log10(KD)) was 6.7. For YSWTWGNRASVRGC [CP-06 S9A], the other: pKD (-Log10(KD)) was 7.7. Binder YSWAWGNRSSVRGC [CP-06 T4A] has an other: pKD (-Log10(KD)) of 7.8.
